Tests used:
[1] = Adsorption of β-galactosidase on silicone oil emulsion, enzyme activity in aqueous phase, Example 2; assay type: physicochemical
Experimental: Ten samples of 10 ml each of a 0.01% solution of the enzyme β-galactosidase from E. coli in 0.01M phosphate buffer, pH 7, with 3×10^6 μU/ml were admixed stepwise with 10 to 100 mg of silicone oil AK 350 and the suspensions were shaken for 48 hours at 5° C. Emulsions were formed which could be separated into two phases by ultracentrifugation (40,000 g, 30 minutes, 4° C.). The enzyme activity in the aqueous phase was determined.

[2] = Shaking test of peptide hormone solutions at 37° C., Example 5; conditions: for appearance after a few days of shaking: 0.1% solution in 0.05M Tris/HCl buffer pH 7.5, shaken at 37° C., without stabilizer; for appearance of stabilized samples: 0.1% solution in 0.05M Tris/HCl pH 7.5, shaken at 37° C., with 10 ppm block polymer (PPG MW 2,000, 5% PEG each side)
[3] = Adsorption of proteins on polystyrene beads at 5° C., protein concentration in filtrate, Example 3; assay type: physicochemical; conditions: for protein concentration in solution, A: A = 3 ml of protein solution + 450 μl of buffer (no polystyrene), phosphate buffer pH 7; for protein concentration in solution (filtrate), B: B = after contact with treated polystyrene surfaces (block polymer PPG MW 2,250, 5% PEG each side; 20 ppm present); for protein concentration in solution (filtrate), B / protein concentration in solution (filtrate), C: shaken at 5° C., 0.2 μm filtered; for protein concentration in solution (filtrate), C: C = after contact with untreated polystyrene surfaces
Experimental: 10 ml of an aqueous suspension of polystyrene beads (Dow-Latex®) having an average diameter of 0.481 μm were divided in two aliquots, one of which remained untreated while the other was shaken for 2 days at room temperature with 50 mg of a block polymer consisting of a linear polypropylene glycol chain with an average molecular weight of 2,250 (Dalton) on each side of which 5% of polyethylene glycol had been added by polymerization. The excess block polymer was then removed by dialysis against an aqueous solution containing 20 ppm of the same polymeric, surface-active substance.
Two times 3 ml portions of a solution of the proteins indicated in the following table in the given concentrations in phosphate buffer, pH 7, were prepared and each solution was shaken at 5° C. with 500 μl each of the untreated polystyrene suspension or the polystyrene suspension treated as described above, the latter still containing 20 ppm of the block polymer. Each sample was then filtered to clarity through a 0.2 μm filter.
A=3 ml of the respective protein solution+450 μl of buffer
B=after contact with treated polystyrene surfaces
C=after contact with untreated polystyrene surfaces.

[4] = Shaking test of albumin solutions at 37° C. (turbidity from denatured protein), Example 1b; assay type: physicochemical; conditions: 0.1% solution in 0.01M phosphate buffer pH 7, shaken at 37° C.
[5] = Shaking test of protein solutions at 37° C. with analytical ultracentrifuge check, Example 6; assay type: physicochemical
Experimental: 0.1% solutions of egg albumin, human immunoglobulin-G and myoglobin of the whale, respectively, in 0.01M phosphate buffer, pH 7, and analogous solutions containing 0.1%, calculated on the weight of the solution, of the following compound [drawing 4] in which n and m are chosen to obtain a compound having an average total molecular weight of 12,500 Daltons with an ethylene oxide proportion of 40%, were freed from aggregates by ultracentifugation (for example 100,000 g/90 minutes). Ampules containing 10 ml each of the solutions were shaken at 37° C.

In the case of “β-galactosidase: enzyme β-galactosidase from E. coli”, the “enzyme adsorbed by silicone oil emulsion” value ([1]; 0.01% solution, 0.01M phosphate buffer pH 7, 10 to 100 mg silicone oil AK 350, shaken 48 hours at 5° C., without stabilizer) is reported as “up to 70%” and the “enzyme activity adsorbed on silicone oil” value ([1]; same test in the presence of 100 ppm of compound drawing 2) is reported as “no enzyme activity had been adsorbed”.

In the case of calcitonin, the “appearance after a few days of shaking” value [2] is reported as “had become turbid” and the “appearance of stabilized samples” value [2] is reported as “remained clear even after several months”.

With Insulin the “protein concentration in solution, A” value [3] was 1.0 mg/mL, the “protein concentration in solution (filtrate), B” value (shortened to “protein concentration … B”) [3] was 1.0 mg/mL and the “protein concentration in solution (filtrate), C” value [3] was 0.2 mg/mL.

With “gastrin inhibiting polypeptide: peptide hormone” the “appearance after a few days of shaking” value [2] was “had become turbid”.

In the case of “bovine serum albumin: bovine serum albumin, 0.1% solution”, the “appearance of sample containing stabilizer” value ([4]; with 10 ppm block polymer (polypropylene glycol MW 1,750, 5% polyethylene glycol on each side)) is reported as “still limpid after several month” and the “time after which sample became strongly turbid (denatured protein)” value ([4]; without stabilizer) is reported as 7 days.

In the case of cholecystokinin, the “appearance after a few days of shaking” value [2] is reported as “had become turbid” and the “appearance of stabilized samples” value [2] is reported as “remained clear even after several months”.

For Lysozyme, the “protein concentration in solution, A” value [3] was 1.0 mg/mL, the “protein concentration … B” value [3] was 0.95 mg/mL and the “protein concentration in solution (filtrate), C” value [3] was 0.25 mg/mL.

In the case of gastrin, the “appearance after a few days of shaking” value [2] is reported as “had become turbid”.

For “adrenocorticotropic hormone: peptide hormone (SYSMEHFRWGKPVGKKRRPVKVYPNGAEDESAEAFPLEF; Corticotropin; UniProt P01189 138-176, looked up)”, the “appearance after a few days of shaking” value [2] was “had become turbid” and the “appearance of stabilized samples” value [2] was “remained clear even after several months”.

With secretin: peptide hormone the “protein concentration in solution, A” value [3] was 1.0 mg/mL, the “protein concentration … B” value [3] was 1.0 mg/mL and the “protein concentration in solution (filtrate), C” value [3] was 0.3 mg/mL. The “appearance after a few days of shaking” value [2] was “had become turbid”.

B1: Egg-albumin: egg albumin (protein, UniProt P01012 2-386, looked up)
Ovalbumin: GSIGAASMEFCFDVFKELKVHHANENIFYCPIAIMSALAMVYLGAKDSTRTQINKVVRFDKLPGFGDSIEAQCGTSVNVHSSLRDILNQITKPNDVYSFSLASRLYAEERYPILPEYLQCVKELYRGGLEPINFQTAADQARELINSWVESQTNGIIRNVLQPSSVDSQTAMVLVNAIVFKGLWEKAFKDEDTQAMPFRVTEQESKPVQMMYQIGLFRVASMASEKMKILELPFASGTMSMLVLLPDEVSGLEQLESIINFEKLTEWTSSNVMEERKIKVYLPRMKMEEKYNLTSVLMAMGITDVFSSSANLSGISSAESLKISQAVHAAHAEINEAGREVVGSAEAGVDAASVSEEFRADHPFLFCIKHIATNAVLFFGRCVSP
For B1, the “appearance of samples without stabilizer” value ([5]; 0.1% solution in 0.01M phosphate buffer pH 7, freed from aggregates, shaken at 37° C., without stabilizer) was “became strongly turbid after a few hours”, the “appearance of samples containing surface-active substance” value ([5]; 0.1% solution in 0.01M phosphate buffer pH 7, shaken at 37° C., with 0.1% of compound drawing 4 (MW 12,500, 40% ethylene oxide)) was “remained limpid for several months” and the “new aggregates in analytical ultracentrifuge” value ([5]; samples with 0.1% of compound drawing 4 after shaking at 37° C.) was “no new aggregate could be found”. The “protein concentration in solution, A” value [3] was 0.5 mg/mL, the “protein concentration … B” value [3] was 0.50 mg/mL and the “protein concentration in solution (filtrate), C” value [3] was 0.22 mg/mL.

Source: US4783441A, “Aqueous protein solutions stable to denaturation” (Hoechst Aktiengesellschaft, priority 1979, dated 1988)
